Reference: article PMC3311221 (Nature cell biology, 2011)

Biological target: the molecule itself
Assay: SEC + other: glycerol gradient sedimentation

B1: polyhistidine-tagged TFG-1 amino-terminus (amino acids 1-195) (domain or fragment, C. elegans, UniProt Q9U1W1 1-195, looked up)
chain: MVHSNGAITSTILKARHADVVRKTSLHHANDLTLIDLVLNVQRLLALPSDANFVLKYKDEEGDLVTLAEDSDLLLALHTSGATLDVTVVVDSRAREAVHDVQKQVEQIKLDVGKLLGALSALDVAQIAEQSNTSVANLSAPKQSHHDNIVFQKSFEAAPPSPVPSEKAELPATIQPSVHEQFNHRPAHVEEEIPL
- stoichiometry N: 8

B2: polyhistidine-tagged full length TFG-1 (natural protein, C. elegans, UniProt Q9U1W1 1-486, looked up)
chain: MVHSNGAITSTILKARHADVVRKTSLHHANDLTLIDLVLNVQRLLALPSDANFVLKYKDEEGDLVTLAEDSDLLLALHTSGATLDVTVVVDSRAREAVHDVQKQVEQIKLDVGKLLGALSALDVAQIAEQSNTSVANLSAPKQSHHDNIVFQKSFEAAPPSPVPSEKAELPATIQPSVHEQFNHRPAHVEEEIPLENHYAPPPHQQIPDDLNTSFSSQPPPPIEQFGAIPPPNATIPSFPTSNAASPPVQEFAPPPPQQQQQQFQAPPPPMASHSSISSTPVQQQGFAPPQQFGGPPPSGPPSEYGGYAPPQQQQQQFGAPPPQGAPQQGFGAPPQGPPQGGPPQGSFGAPPPQQFHAPSPQSFGGPPPPVSSAPGNFAPPPQSGPPGAFAPPPSAFGAPQGPGGPGGYGPPPPGGPGAPGSYGPPQGGPGGFGPPPPGGPGAYGPPPTGFPPVGAPPPGAAGAPGGNPFARGPSATGYRQSPYQQ
- stoichiometry N: 6
